Test results as given in publication PMC10453832, “Increased Actin Binding Is a Shared Molecular Consequence of Numerous SCA5 Mutations in β-III-Spectrin” (Cells, 2023).
Positions count from the first letter of the chain named. In names and notes the source's numbering stands.

B1: β-III-spectrin actin-binding domain, wild-type (domain or fragment)
chain: MSSTLSPTDFDSLEIQGQYSDINNRWDLPDSDWDNDSSSARLFERSRIKALADEREAVQKKTFTKWVNSHLARVTCRVGDLYSDLRDGRNLLRLLEVLSGEILPKPTKGRMRIHCLENVDKALQFLKEQKVHLENMGSHDIVDGNHRLTLGLVWTIILRFQIQDISVETEDNKEKKSAKDALLLWCQMKTAGYPNVNVHNFTTSWRDGLAFNAIVHKHRPDLLDFESLKKCNAHYNLQNAFNLAEKELGLTKLLDPEDVNVDQPDEKSIITYVATYYHYFSKMK
notes: Construct pE-SUMO-ABD WT; also called ABD WT; wild-type ABD; source: Rosetta 2 (DE3) E. coli, purified (Ni-NTA, tag cleaved with Ulp1, second Ni-NTA)
B2: β-III-spectrin actin-binding domain V58M (domain or fragment)
chain: B1 chain with V58M
notes: mutation found in a patient; also called V58M ABD; source: Rosetta 2 (DE3) E. coli, purified (Ni-NTA, tag cleaved with Ulp1, second Ni-NTA)
B3: β-III-spectrin actin-binding domain K61E (domain or fragment)
chain: B1 chain with K61E
notes: mutation found in a patient; also called K61E ABD; source: Rosetta 2 (DE3) E. coli, purified (Ni-NTA, tag cleaved with Ulp1, second Ni-NTA)
B4: β-III-spectrin actin-binding domain D255G (domain or fragment)
chain: B1 chain with D255G
notes: mutation found in a patient; also called D255G ABD; source: Rosetta 2 (DE3) E. coli, purified (Ni-NTA, tag cleaved with Ulp1, second Ni-NTA)
B5: β-III-spectrin actin-binding domain H278R (domain or fragment)
chain: B1 chain with H278R
notes: mutation found in a patient; also called H278R ABD; source: Rosetta 2 (DE3) E. coli, purified (Ni-NTA, tag cleaved with Ulp1, second Ni-NTA)
B6: β-III-spectrin actin-binding domain T62I (domain or fragment)
chain: B1 chain with T62I
notes: mutation found in a patient; also called T62I ABD; source: Rosetta 2 (DE3) E. coli, purified (Ni-NTA, tag cleaved with Ulp1, second Ni-NTA)
B7: β-III-spectrin actin-binding domain Y272H (domain or fragment)
chain: B1 chain with Y272H
notes: mutation found in a patient and a parent; also called Y272H ABD; source: Rosetta 2 (DE3) E. coli, purified (Ni-NTA, tag cleaved with Ulp1, second Ni-NTA)
B8: β-III-spectrin actin-binding domain T271I (domain or fragment)
chain: B1 chain with T271I
notes: mutation found in a patient; also called T271I ABD; source: Rosetta 2 (DE3) E. coli, purified (Ni-NTA, tag cleaved with Ulp1, second Ni-NTA)
B9: β-III-spectrin actin-binding domain F160C (domain or fragment)
chain: B1 chain with F160C
notes: mutation found in a patient; The methods paragraph prints F16C, everywhere else F160C; also called F160C ABD; F16C (as printed in the methods); source: Rosetta 2 (DE3) E. coli, purified (Ni-NTA, tag cleaved with Ulp1, second Ni-NTA)
B10: β-III-spectrin actin-binding domain K65E (domain or fragment)
chain: B1 chain with K65E
notes: mutation found in a patient; also called K65E ABD; source: Rosetta 2 (DE3) E. coli, purified (Ni-NTA, tag cleaved with Ulp1, second Ni-NTA)
B11: β-III-spectrin actin-binding domain L253P (domain or fragment)
chain: B1 chain with L253P
notes: Construct pE-SUMO-ABD-L253P; Mutation found in SCA5 patients; also called L253P ABD; source: Rosetta 2 (DE3) E. coli, purified (Ni-NTA, tag cleaved with Ulp1, second Ni-NTA)

Columns and labels:
[1] = molecular target: T1, F-actin from rabbit skeletal muscle (rabbit, UniProt P68135 1-377); experiment: co-sedimentation; 2 µM ABD protein with increasing F-actin (3-120 µM) in F-buffer (10 mM Tris pH 7.5, 150 mM NaCl, 0.5 mM ATP, 2 mM MgCl2, 1 mM DTT); 30 min at room temperature; 50,000 RPM 30 min 25 °C; ABD left in supernatant quantified by SDS-PAGE and Coomassie; one-site fit with Bmax constrained to 1; conditions: both partners purified
[2] = molecular target: T1, F-actin from rabbit skeletal muscle; experiment: as above; conditions: both partners purified; remark: listed apart in the source

Kd [1] [µM] | Kd [2] [µM] | Binder
55.2 |  | B1
10.2 |  | B2
< 1 |  | B3
7.3 |  | B4
6.7 |  | B5
2.4 |  | B6
15.3 | 15.5 | B7
< 1 |  | B8
< 1 |  | B9
< 1 |  | B10
< 1 |  | B11
